Measured values reported in paper PMC9499943 (Nature Communications, 2022).

What was measured:
Experiment in all cases: BLI
Conditions in all cases: both partners purified
[1] = molecular target: His-tagged RBD (RBD-His) protein of SARS-CoV-2 (SARS-CoV-2, wild type (Wuhan-Hu-1 …, UniProt P0DTC2))
[2] = molecular target: His-tagged RBD (RBD-His) protein of SARS-CoV-2 (SARS-CoV-2, wild type (Wuhan-Hu-1 …, UniProt P0DTC2)); remark: listed apart in the source
[3] = molecular target: Fc-tagged wild-type RBD (RBD-Fc) (SARS-CoV-2, UniProt P0DTC2)

| Binder | Kd [1] | koff [1] | kon [1] | other [2] | IC50 [3] |
| --- | --- | --- | --- | --- | --- |
| CoV2-14 (antibody, V domains shown) VH: EVQLQQSGPGLVKPSQTLSLTCAISGDSVSSNSAAWNWIRQSPSRGLEWLGRTYYRSKWYNDYAVSVKSRITINPDTSKNQFSLQLNSVTPEDTAVYYCAREEQQLVHDYYYYGMDVWGQGTMVTVSS VL: QAVVTQPASVSGSPGQSITISCTGTSSDIGAYNYISWYQQHPGKAPKLIIYEVSNRPSGISYRFSGSKSGNTASLTISGLQAEDEANYYCSSYAGSISFGGGTKVTVL [CoV2-14, listing 1 of 2 here] | 1.18 nM | 0.000895 s⁻¹ | 761000 M⁻¹ s⁻¹ |  |  |
| CoV2-14 (antibody, V domains shown) VH: EVQLQQSGPGLVKPSQTLSLTCAISGDSVSSNSAAWNWIRQSPSRGLEWLGRTYYRSKWYNDYAVSVKSRITINPDTSKNQFSLQLNSVTPEDTAVYYCAREEQQLVHDYYYYGMDVWGQGTMVTVSS VL: QAVVTQPASVSGSPGQSITISCTGTSSDIGAYNYISWYQQHPGKAPKLIIYEVSNRPSGISYRFSGSKSGNTASLTISGLQAEDEANYYCSSYAGSISFGGGTKVTVL [CoV2-14, listing 2 of 2 here] |  |  |  | 2 fold | 10.6 nM |
| CoV2-06 (antibody, V domains shown) VH: QVELQESGPGLVKPSGTLSLTCAVSGGSISSNNWWTWVRQPPGKGLEWIGEIHHSGGTNYNPSLKSRVTMSVDKSKNQFSLNLYSVTAADTAVYYCTRDRAGGTYSGFDFWGQGTLVTVSS VL: QAVVTQPASVSGSPGQSITISCTGTSSDVGGYNYVSWYQQHPGKAPKLMIYDVSNRPSGVSNRFSGSKSGNTASLTISGLQAEDEADYYCSSYTSSSTVVFGGGTKVTVL [CoV2-06, listing 1 of 2 here] | 4.14 nM | 0.000695 s⁻¹ | 168000 M⁻¹ s⁻¹ |  |  |
| CoV2-06 (antibody, V domains shown) VH: QVELQESGPGLVKPSGTLSLTCAVSGGSISSNNWWTWVRQPPGKGLEWIGEIHHSGGTNYNPSLKSRVTMSVDKSKNQFSLNLYSVTAADTAVYYCTRDRAGGTYSGFDFWGQGTLVTVSS VL: QAVVTQPASVSGSPGQSITISCTGTSSDVGGYNYVSWYQQHPGKAPKLMIYDVSNRPSGVSNRFSGSKSGNTASLTISGLQAEDEADYYCSSYTSSSTVVFGGGTKVTVL [CoV2-06, listing 2 of 2 here] |  |  |  | 46 fold | 39.8 nM |
